One assay addresses HLA-A*69:01. Briefly: IEDB peptide-MHC binding, purified MHC/direct/fluorescence; filed as Kd, often an IC50 or EC50 that approximates it; ≥ and ≤ were set here for values at or beyond the usual limits of such assays.
In a further assay the target is HLA-B*57:01. The assay is described as above.
Another assay deals with HLA-C*07:02. The description is as above. The settings on record: source organism: Vaccinia virus WR.
The target of a further assay is HLA-B*08:03. Described as above. The note with it: source organism: Variola virus.
In the next assay the target is HLA-A*31:01. The description is as above.
A further assay addresses HLA-A*01:01. The description is as above.
For the next assay, the target named is HLA-B*58:01. The assay is described as above.
In another assay the target is HLA-B*07:02. The assay is described as above.
The target of the next assay is HLA-A*26:02. The assay is described as above.
The target in the next assay is HLA-A*68:02. The description is as above.
A further assay has as its target HLA-A*26:03. The assay is described as above.
The target in a further assay is HLA-A*11:01. The assay is described as above.
The next assay has as its target HLA-B*15:09. The assay is described as above.
In a further assay the target is HLA-A*24:03. The assay is described as above. The note with it: source organism: Camelpox virus M-96.
A further assay deals with HLA-B*15:01. Described as above.
In assay [1] the target is HLA-B*15:17. Briefly: IEDB peptide-MHC binding, purified MHC/competitive/fluorescence; filed as Kd, often an IC50 or EC50 that approximates it; ≥ and ≤ were set here for values at or beyond the usual limits of such assays. The note with it: source organism: Vaccinia virus WR.
The target in assay [2] is HLA-B*18:01. The description is as above. The note with it: source organism: Vaccinia virus WR.
Assay [3] concerns the target HLA-A*02:01. The description is as above. The note with it: source organism: Vaccinia virus WR.
For a further assay, the target named is HLA-B*27:05. Briefly: IEDB peptide-MHC binding, purified MHC/direct/fluorescence; filed as Kd, often an IC50 or EC50 that approximates it; ≥ and ≤ were set here for values at or beyond the usual limits of such assays.
In a further assay the target is HLA-B*40:01. The description is as above.
The target of another assay is HLA-B*46:01. The assay is described as above.
A further assay deals with HLA-A*26:01. Described as above. The settings on record: source organism: Salmonella enterica.
The next assay concerns the target HLA-A*03:01. The description is as above.
The target of a further assay is HLA-B*44:02. The assay is described as above. The settings on record: source organism: Salmonella enterica.
The target in the next assay is HLA-B*08:01. The description is as above.
The target of another assay is HLA-B*15:02. Described as above. The note with it: source organism: Salmonella enterica subsp. enterica serovar Typhimurium str. LT2.
The target in the next assay is HLA-B*35:01. Described as above. The note with it: source organism: Salmonella enterica subsp. enterica serovar Typhimurium.
The target of assay [4] is HLA-A*02:01. The description is as above.
The next assay has as its target HLA-B*39:01. Described as above. The settings on record: source organism: Influenza A virus (A/quail/Hong Kong/FY298/00(H9N2)).
The target of assay [5] is HLA-B*15:17. Described as above. The note with it: source organism: Influenza A virus (A/quail/Hong Kong/FY298/00(H9N2)).
The target in assay [6] is HLA-B*18:01. Described as above. The settings on record: source organism: Influenza A virus (A/quail/Hong Kong/FY298/00(H9N2)).
In another assay the target is HLA-B*08:02. The assay is described as above. The note with it: source organism: Influenza B virus (B/Beijing/184/93).
In the next assay the target is HLA-B*48:01. The description is as above. The note with it: source organism: Influenza A virus (A/quail/Hong Kong/FY298/00(H9N2)).
The next assay deals with HLA-C*08:02. The description is as above. The note with it: source organism: Yersinia pestis Nepal516.
In a further assay the target is HLA-C*06:02. The description is as above. The settings on record: source organism: Yersinia pestis Nepal516.
The target in the next assay is HLA-B*15:42. Kind of assay: IEDB peptide-MHC binding, purified MHC/competitive/fluorescence; filed as Kd, often an IC50 or EC50 that approximates it; ≥ and ≤ were set here for values at or beyond the usual limits of such assays. The note with it: source organism: Yersinia pestis Nepal516.
For the next assay, the target named is HLA-A*68:23. The assay is described as above. The note with it: source organism: Yersinia pestis Nepal516.
For the next assay, the target named is HLA-B*45:06. The description is as above. The settings on record: source organism: Yersinia pestis Nepal516.
A further assay addresses HLA-A*03:19. The assay is described as above. The settings on record: source organism: Yersinia pestis Nepal516.
Another assay deals with HLA-B*83:01. The assay is described as above. The note with it: source organism: Yersinia pestis Nepal516.
Where [7] appears, read: source organism: Camelpox virus M-96.
Setting [8] is: source organism: Salmonella enterica.
[9] abbreviates: source organism: Salmonella enterica subsp. enterica serovar Typhimurium.
The mark [10] stands for this setting: source organism: Influenza A virus (A/quail/Hong Kong/FY298/00(H9N2)).
The mark [11] stands for this setting: source organism: Influenza B virus (B/Beijing/184/93).
Setting [12] is: source organism: Yersinia pestis.

Regarding FYLFTFTIY, the equilibrium dissociation constant (Kd) (commonly a measure of binding affinity in units of concentration) with HLA-A*69:01 (setting [7]) is no less than 20 µM; with HLA-B*57:01 (setting [7]), no less than 20 µM; with HLA-C*07:02, 2 µM; in the assay with HLA-B*08:03, no less than 20 µM; with HLA-A*31:01 (setting [7]) it was no less than 20 µM; with HLA-A*01:01 (setting [7]), no less than 20 µM. The dissociation constant (Kd) in the assay with HLA-B*58:01 (setting [7]), with HLA-B*07:02 (setting [7]), with HLA-A*26:02 (source organism: Variola virus), with HLA-A*68:02 (setting [7]), with HLA-A*26:03 (source organism: Variola virus) and in the assay with HLA-A*11:01 (setting [7]) was no less than 20 µM in each case. For the same sequence, the Kd was no less than 20 µM with HLA-B*15:09 (source organism: Variola virus); 1.25 µM with HLA-A*24:03; no less than 20 µM in the assay with HLA-B*15:01 (setting [7]); no less than 20 µM with HLA-B*15:17 [1]; 3.89 µM with HLA-B*18:01 [2]; no less than 20 µM with HLA-A*02:01 [3].

Take MQQSGDEAF: the Kd with HLA-B*27:05 (setting [8]) was no less than 20 µM; in the assay with HLA-A*69:01 (setting [8]) it was no less than 20 µM; with HLA-B*40:01 (setting [9]), 1.01 µM; in the assay with HLA-B*46:01 (setting [8]) it was no less than 20 µM; with HLA-A*31:01 (setting [8]) it was no less than 20 µM; with HLA-A*26:01, no less than 20 µM. The Kd in the assay with HLA-A*03:01 (setting [8]), with HLA-A*01:01 (setting [8]), with HLA-B*44:02, in the assay with HLA-B*58:01 (setting [8]), with HLA-B*08:01 (setting [8]) and with HLA-B*07:02 (setting [8]) was no less than 20 µM throughout. Besides, the Kd was no less than 20 µM with HLA-A*11:01 (setting [8]); 0.032 µM with HLA-B*15:02; 0.147 µM with HLA-B*35:01; no less than 20 µM in the assay with HLA-A*02:01 [4] (setting [8]); 0.2 µM with HLA-B*15:01 (setting [9]).

With TKDAERGKL, the Kd with HLA-B*27:05 (setting [10]), with HLA-A*69:01 (setting [10]), in the assay with HLA-B*57:01 (setting [10]), with HLA-B*40:01 (setting [10]), with HLA-B*46:01 (setting [10]) and with HLA-A*03:01 (setting [10]) was no less than 20 µM each time. Moreover, the Kd with HLA-B*39:01, with HLA-A*01:01 (setting [10]), in the assay with HLA-B*58:01 (setting [10]), with HLA-B*15:17 [5], in the assay with HLA-B*08:01 (setting [11]) and with HLA-B*07:02 (setting [10]) was no less than 20 µM throughout. Moreover, the Kd with HLA-A*26:02 (setting [11]), in the assay with HLA-B*18:01 [6], with HLA-A*68:02 (setting [10]), with HLA-A*26:03 (setting [11]), in the assay with HLA-B*08:02 and in the assay with HLA-A*02:01 [4] (setting [10]) was no less than 20 µM throughout. The figures for the equilibrium dissociation constant (Kd) in the assay with HLA-B*15:09 (setting [11]), with HLA-B*48:01 and in the assay with HLA-B*15:01 (setting [10]) were no less than 10 µM, no less than 20 µM and no less than 20 µM, respectively.

For TVYPKTHYV, the Kd in the assay with HLA-A*69:01 (setting [12]) is 0.0114 µM; with HLA-C*08:02, no less than 20 µM; with HLA-A*31:01 (setting [12]), 0.178 µM; with HLA-A*03:01 (setting [12]), 4.18 µM; with HLA-C*06:02 it was 0.035 µM; in the assay with HLA-B*58:01 (setting [12]), 3.63 µM. Moreover, the dissociation constant (Kd) with HLA-A*11:01 (setting [12]) is 0.048 µM; with HLA-A*02:01 [4] (setting [12]) it was 0.0415 µM; with HLA-B*15:01 (setting [12]), 2.01 µM; with HLA-B*15:42 it was no less than 5 µM; with HLA-A*68:23, no more than 0.0001 µM; with HLA-B*45:06, no less than 5 µM. For the same sequence, the Kd was 0.201 µM with HLA-A*03:19 and no less than 5 µM with HLA-B*83:01.

For the origin of these results see the Immune Epitope Database (IEDB).
